Results taken from IntAct's records for PubMed 18997771.

B1: Vascular endothelial growth factor receptor 2 (Mus musculus), P35918 (parent)
chain: MESKALLAVALWFCVETRAASVGLPGDFLHPPKLSTQKDILTILANTTLQITCRGQRDLDWLWPNAQRDSEERVLVTECGGGDSIFCKTLTIPRVVGNDTGAYKCSYRDVDIASTVYVYVRDYRSPFIASVSDQHGIVYITENKNKTVVIPCRGSISNLNVSLCARYPEKRFVPDGNRISWDSEIGFTLPSYMISYAGMVFCEAKINDETYQSIMYIVVVVGYRIYDVILSPPHEIELSAGEKLVLNCTARTELNVGLDFTWHSPPSKSHHKKIVNRDVKPFPGTVAKMFLSTLTIESVTKSDQGEYTCVASSGRMIKRNRTFVRVHTKPFIAFGSGMKSLVEATVGSQVRIPVKYLSYPAPDIKWYRNGRPIESNYTMIVGDELTIMEVTERDAGNYTVILTNPISMEKQSHMVSLVVNVPPQIGEKALISPMDSYQYGTMQTLTCTVYANPPLHHIQWYWQLEEACSYRPGQTSPYACKEWRHVEDFQGGNKIEVTKNQYALIEGKNKTVSTLVIQAANVSALYKCEAINKAGRGERVISFHVIRGPEITVQPAAQPTEQESVSLLCTADRNTFENLTWYKLGSQATSVHMGESLTPVCKNLDALWKLNGTMFSNSTNDILIVAFQNASLQDQGDYVCSAQDKKTKKRHCLVKQLIILERMAPMITGNLENQTTTIGETIEVTCPASGNPTPHITWFKDNETLVEDSGIVLRDGNRNLTIRRVRKEDGGLYTCQACNVLGCARAETLFIIEGAQEKTNLEVIILVGTAVIAMFFWLLLVIVLRTVKRANEGELKTGYLSIVMDPDELPLDERCERLPYDASKWEFPRDRLKLGKPLGRGAFGQVIEADAFGIDKTATCKTVAVKMLKEGATHSEHRALMSELKILIHIGHHLNVVNLLGACTKPGGPLMVIVEFCKFGNLSTYLRGKRNEFVPYKSKGARFRQGKDYVGELSVDLKRRLDSITSSQSSASSGFVEEKSLSDVEEEEASEELYKDFLTLEHLICYSFQVAKGMEFLASRKCIHRDLAARNILLSEKNVVKICDFGLARDIYKDPDYVRKGDARLPLKWMAPETIFDRVYTIQSDVWSFGVLLWEIFSLGASPYPGVKIDEEFCRRLKEGTRMRAPDYTTPEMYQTMLDCWHEDPNQRPSFSELVEHLGNLLQANAQQDGKDYIVLPMSETLSMEEDSGLSLPTSPVSCMEEEEVCDPKFHYDNTAGISHYLQNSKRKSRPVSVKTFEDIPLEEPEVKVIPDDSQTDSGMVLASEELKTLEDRNKLSPSFGGMMPSKSRESVASEGSNQTSGYQSGYHSDDTDTTVYSSDEAGLLKMVDAAVHADSGTTLRSPPV

Variants of: B1
Details: with pgfrb_human PDGFRB

Variant | effect of a mutation on the interaction
Y1052F;Y1057F | disrupting interaction
